Positions count from the first letter of the chain named. Several values for one entry are separate records, joined by “and”; a condition that tells them apart may be missing. Equal entries are not always repeated.
B1: Bispecific construct 12 (bispecific antibody, human IgG1, kappa)
heavy: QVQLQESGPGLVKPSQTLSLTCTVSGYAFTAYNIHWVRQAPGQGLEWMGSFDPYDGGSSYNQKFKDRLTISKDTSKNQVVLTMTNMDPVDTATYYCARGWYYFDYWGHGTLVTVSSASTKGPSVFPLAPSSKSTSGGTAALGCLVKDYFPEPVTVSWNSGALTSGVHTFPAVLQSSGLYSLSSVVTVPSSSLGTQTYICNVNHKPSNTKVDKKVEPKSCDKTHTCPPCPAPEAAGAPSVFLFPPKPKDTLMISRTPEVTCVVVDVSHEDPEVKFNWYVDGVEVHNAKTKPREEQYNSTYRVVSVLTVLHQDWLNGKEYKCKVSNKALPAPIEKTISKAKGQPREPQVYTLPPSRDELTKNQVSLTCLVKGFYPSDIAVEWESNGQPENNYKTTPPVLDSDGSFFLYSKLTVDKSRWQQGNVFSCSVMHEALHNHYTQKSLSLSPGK
light: DIVMTQTPLSLPVTPGEPASISCRASKSISKYLAWYQQKPGQAPRLLIYSGSTLQSGIPPRFSGSGYGTDFTLTINNIESEDAAYYFCQQHDESPYTFGEGTKVEIKRTVAAPSVFIFPPSDEQLKSGTASVVCLLNNFYPREAKVQWKVDNALQSGNSQESVTEQDSKDSTYSLSSTLTLSKADYEKHKVYACEVTHQGLSSPVTKSFNRGECGGGGSGGGGSEVQLVESGGGLVQPGGSLRLSCAASGFTFNTYAMNWVRQAPGKCLEWVARIRSKYNNYATYYADSVKGRFTISRDDSKNTLYLQMNSLRAEDTAVYYCVRHGNFGNSYVSYFAYWGQGTTVTVSSGGGGSGGGGSGGGGSGGGGSEIVVTQSPATLSVSPGERATLSCRSSTGAVTAANYANWVQEKPGQAFRGLIGGANKRAPGVPARFSGSLSGDEATLTISSLQSEDFAVYYCALFYSNLWVFGCGTKLEIK
notes: disulfide-stabilized anti-CD3 scFv Ab10; ROR1 arm Ab1; valency 2/2
B2: Bispecific construct 18 (bispecific antibody, human IgG1, kappa)
heavy: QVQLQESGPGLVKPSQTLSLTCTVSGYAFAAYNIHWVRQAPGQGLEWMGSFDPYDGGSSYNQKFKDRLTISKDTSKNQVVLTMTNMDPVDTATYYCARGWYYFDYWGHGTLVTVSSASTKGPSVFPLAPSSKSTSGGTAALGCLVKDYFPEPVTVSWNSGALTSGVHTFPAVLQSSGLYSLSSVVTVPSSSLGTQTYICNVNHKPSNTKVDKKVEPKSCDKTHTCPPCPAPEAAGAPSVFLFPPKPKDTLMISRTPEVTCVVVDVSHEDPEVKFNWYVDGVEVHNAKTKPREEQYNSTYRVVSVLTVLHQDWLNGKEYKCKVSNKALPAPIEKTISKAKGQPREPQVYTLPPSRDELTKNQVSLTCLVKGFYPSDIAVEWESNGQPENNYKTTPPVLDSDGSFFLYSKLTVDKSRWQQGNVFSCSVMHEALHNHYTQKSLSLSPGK
light: B1 light with C268G, C472Q
notes: anti-CD3 scFv Ab10; valency 2/2
B3: Bispecific construct 20 (bispecific antibody, human IgG1, kappa)
heavy: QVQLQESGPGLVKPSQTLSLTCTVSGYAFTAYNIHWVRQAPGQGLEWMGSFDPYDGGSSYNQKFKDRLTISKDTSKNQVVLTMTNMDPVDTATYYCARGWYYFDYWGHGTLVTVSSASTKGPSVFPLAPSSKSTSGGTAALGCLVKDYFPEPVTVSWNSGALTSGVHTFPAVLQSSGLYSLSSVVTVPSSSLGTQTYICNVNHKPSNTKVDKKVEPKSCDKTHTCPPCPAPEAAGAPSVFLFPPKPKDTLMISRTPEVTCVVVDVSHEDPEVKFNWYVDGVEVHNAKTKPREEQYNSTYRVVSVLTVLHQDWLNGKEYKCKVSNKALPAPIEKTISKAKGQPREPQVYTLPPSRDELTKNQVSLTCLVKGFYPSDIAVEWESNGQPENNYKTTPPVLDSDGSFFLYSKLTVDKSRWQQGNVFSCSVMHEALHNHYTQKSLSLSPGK
light: EVQLVESGGGLVQPGGSLRLSCAASGFTFNTYAMNWVRQAPGKGLEWVARIRSKYNNYATYYADSVKGRFTISRDDSKNTLYLQMNSLRAEDTAVYYCVRHGNFGNSYVSYFAYWGQGTTVTVSSGGGGSGGGGSGGGGSGGGGSEIVVTQSPATLSVSPGERATLSCRSSTGAVTAANYANWVQEKPGQAFRGLIGGANKRAPGVPARFSGSLSGDEATLTISSLQSEDFAVYYCALFYSNLWVFGQGTKLEIKGGGGSGGGGSDIVMTQTPLSLPVTPGEPASISCRASKSISKYLAWYQQKPGQAPRLLIYSGSTLQSGIPPRFSGSGYGTDFTLTINNIESEDAAYYFCQQHDESPYTFGEGTKVEIKRTVAAPSVFIFPPSDEQLKSGTASVVCLLNNFYPREAKVQWKVDNALQSGNSQESVTEQDSKDSTYSLSSTLTLSKADYEKHKVYACEVTHQGLSSPVTKSFNRGEC
notes: valency 2/2
B4: Bispecific construct 16 (bispecific antibody, human IgG1, kappa)
heavy 1: not shown
heavy 2: EVQLVESGGGLVQPGGSLRLSCAASGFTFNTYAMNWVRQAPGKGLEWVARIRSKYNNYATYYADSVKGRFTISRDDSKNTLYLQMNSLRAEDTAVYYCVRHGNFGNSYVSYFAYWGQGTTVTVSSGGGGSGGGGSGGGGSGGGGSEIVVTQSPATLSVSPGERATLSCRSSTGAVTAANYANWVQEKPGQAFRGLIGGANKRAPGVPARFSGSLSGDEATLTISSLQSEDFAVYYCALFYSNLWVFGQGTKLEIKEPKSSDKTHTCPPCPAPEAAGAPSVFLFPPKPKDTLMISRTPEVTCVVVDVSHEDPEVKFNWYVDGVEVHNAKTKPREEQYNSTYRVVSVLTVLHQDWLNGKEYKCKVSNKALPAPIEKTISKAKGQPREPQVYTLPPSRDELTKNQVSLSCAVKGFYPSDIAVEWESNGQPENNYKTTPPVLDSDGSFFLVSKLTVDKSRWQQGNVFSCSVMHEALHNHYTQKSLSLSPGK
light: DIVMTQTPLSLPVTPGEPASISCRASKSISKYLAWYQQKPGQAPRLLIYSGSTLQSGIPPRFSGSGYGTDFTLTINNIESEDAAYYFCQQHDESPYTFGEGTKVEIKRTVAAPSVFIFPPSDEQLKSGTASVVCLLNNFYPREAKVQWKVDNALQSGNSQESVTEQDSKDSTYSLSSTLTLSKADYEKHKVYACEVTHQGLSSPVTKSFNRGEC
notes: anti-CD3 scFv Ab10; valency 1/1
B5: Bispecific construct 17 (bispecific antibody, human IgG1, kappa)
heavy 1: not shown
heavy 2: B4 heavy 2 with G44C, Q248C
light: B4 light
notes: disulfide-stabilized anti-CD3 scFv Ab10; valency 1/1
B6: control 1 (bispecific antibody)
polypeptide, role not told 1: QLVLTQSPSASASLGSSVKLTCTLSSGHKTDTIDWYQQQPGKAPRYLMKLEGSGSYNKGSGVPDRFSGSSSGADWYLTISSLQSEDEADYYCGTDYPGNYLFGGGTQLTVLGGGGSGGGGEVQLVESGGGLVQPGGSLRLSCAASGFTFSTYAMNWVRQAPGKGLEWVGRIRSKYNNYATYYADSVKGRFTISRDDSKNSLYLQMNSLKTEDTAVYYCVRHGNFGNSYVSWFAYWGQGTLVTVSSASTKGEVAACEKEVAALEKEVAALEKEVAALEKGGGDKTHTCPPCPAPEAAGGPSVFLFPPKPKDTLMISRTPEVTCVVVDVSHEDPEVKFNWYVDGVEVHNAKTKPREEQYNSTYRVVSVLTVLHQDWLNGKEYKCKVSNKALPAPIEKTISKAKGQPREPQVYTLPPSREEMTKNQVSLWCLVKGFYPSDIAVEWESNGQPENNYKTTPPVLDSDGSFFLYSKLTVDKSRWQQGNVFSCSVMHEALHNHYTQKSLSLSPGK
polypeptide, role not told 2: QAVVTQEPSLTVSPGGTVTLTCRSSTGAVTTSNYANWVQQKPGQAPRGLIGGTNKRAPWTPARFSGSLLGGKAALTITGAQAEDEADYYCALWYSNLWVFGGGTKLTVLGGGGSGGGGQEQLVESGGGLVQPGGSLRLSCAASGFTFSDYYMSWIRQAPGKGLEWVATIYPSSGKTYYADSAKGRLTISSDNAKDSLYLQMNSLRAEDTAVYYCTRDSYADDAALFDIWGQGTTVTVSSASTKGKVAACKEKVAALKEKVAALKEKVAALKE
polypeptide, role not told 3: not shown
B7: Bispecific construct 19 (bispecific antibody, human IgG1, kappa)
heavy 1: not shown
heavy 2: EVQLVESGGGLVQPGGSLRLSCAASGFTFNTYAMNWVRQAPGKGLEWVARIRSKYNNYATYYADSVKGRFTISRDDSKNTLYLQMNSLRAEDTAVYYCVRHGNFGNSYVSYFAYWGQGTTVTVSSGGGGSGGGGSGGGGSGGGGSEIVVTQSPATLSVSPGERATLSCRSSTGAVTAANYANWVQEKPGQAFRGLIGGANKRAPGVPARFSGSLSGDEATLTISSLQSEDFAVYYCALFYSNLWVFGQGTKLEIKGGGGSGGGGSQVQLQESGPGLVKPSQTLSLTCTVSGYAFTAYNIHWVRQAPGQGLEWMGSFDPYDGGSSYNQKFKDRLTISKDTSKNQVVLTMTNMDPVDTATYYCARGWYYFDYWGHGTLVTVSSASTKGPSVFPLAPSSKSTSGGTAALGCLVKDYFPEPVTVSWNSGALTSGVHTFPAVLQSSGLYSLSSVVTVPSSSLGTQTYICNVNHKPSNTKVDKKVEPKSCDKTHTCPPCPAPEAAGAPSVFLFPPKPKDTLMISRTPEVTCVVVDVSHEDPEVKFNWYVDGVEVHNAKTKPREEQYNSTYRVVSVLTVLHQDWLNGKEYKCKVSNKALPAPIEKTISKAKGQPREPQVYTLPPSRDELTKNQVSLSCAVKGFYPSDIAVEWESNGQPENNYKTTPPVLDSDGSFFLVSKLTVDKSRWQQGNVFSCSVMHEALHNHYTQKSLSLSPGK
light: B4 light
notes: CD3 valency 1, ROR1 valency 2

How the values were obtained:
[1] = biological target: T1, recombinant human ROR1 extracellular domain (human, UniProt Q01973 30-406); assay: ELISA, immobilised ROR1 ECD, construct titrated
T1 construct: Bought (Acro Biosystems cat. R01-H522Y); whole entry named; also called ROR1-ECD; immobilized ROR1
Description: A 96-well Costar-3366 plate was coated with 50 μL/well of 2 μg/mL […] (Acro Biosystems cat. #R01-H522Y) in PBS overnight at 4° C. The plate was rinsed once with PBS containing 0.05% Tween 20 (PBS-T) and blocked with 100 μL/well of 5% non-fat milk in PBS (5% M-P) for 1 h at 25° C. Antibody samples were serially diluted 2-fold using 5% M-P and were incubated for 1 h at 25° C. (50 μL/well). The plate was washed three times with PBS-T and 50 μL/well anti-human kappa, HRP conjugate (Southern Biotech cat. #2060-05) diluted 10,000-fold in 5% M-P was added for 1 h at 25° C. The plate was washed three times with PBS-T, developed with 50 μL/well 1-Step Ultra TMB-ELISA (Thermo Scientific cat. #34028). The reaction was terminated by the addition of 2 N H₂SO₄ and the A450 was determined using a Spectramax plate reader.
Next, the binding of bispecific binding molecules to ROR was characterized by ELISA using recombinantly-expressed extracellular domain of RORL. ROR was immobilized on a microtiter plate, the bispecific binding molecules were titrated, and binding was quantitated with an anti-human kappa-HRP reagent. Consistent with the cell binding data, all constructs bound ROR1 in a concentration-dependent manner (FIG. 6). Moreover, monovalent ROR1 constructs 13-15 bound less tightly than all but two of the bivalent constructs.

[2] = biological target: T2, soluble biotinylated human ROR1 extracellular domain (human, UniProt Q01973 30-406, biotinylated with EZ-Link Sulfo-NHS-LC-Biotin at a 1:5 molar ratio); assay: ELISA, captured construct, biotinylated ROR1 titrated
T2 construct: Acro Biosystems cat; whole entry named; also called b-ROR1; soluble b-ROR1
Description: To measure the binding of bispecific constructs to soluble ROR1, a 96-well Costar-3366 plate was coated with 50 μL/well of 2 μg/mL goat anti-human kappa (Southern Biotech cat. #2060-01) in PBS overnight at 4° C. The plate was rinsed once with PBS-T, blocked with 100 μL/well 5% M-P for 1 h at 25° C., rinsed once with PBS-T, and 2 μg/mL of the bispecific binding molecule was added and incubated for 1 h at 25° C. The plate was washed three times with PBS-T. Biotinylated ROR1 was diluted serially, 3-fold in 5% M-P and was incubated for 1 h at 25° C. (50 μL/well). The plate was washed three times with PBS-T. To detect the binding of b-ROR1, 50 μL/well Neutravidin-HRP (Pierce cat. #31030) diluted 1:5000 in 1% BSA-PBS was added for 1 h at 25° C. The plate was washed three times with PBS-T, then developed with 50 μL/well 1-Step Ultra TMB-ELISA (Thermo Scientific cat. #34028). The reaction was terminated by the addition of 2 N H₂SO₄ and the A450 was determined using a Spectramax plate reader.
The stronger binding observed with bivalent constructs versus monovalent constructs in cell assays and ELISAs in which the antigen is immobilized is consistent with an avidity effect. To determine if this was the case, binding to soluble monomeric ROR1 was assessed by immobilizing the bispecific binding molecules on a microtiter plate coated with goat anti-human kappa antibody and titrating biotinylated RORL. All bispecific binding molecules were active in this format (FIG. 7), and in most cases, there were no notable differences between monovalent and bivalent constructs.

[3] = biological target: T3, human CD3 on Jurkat cells (human, UniProt P09693 23-182; P04234 22-171; P07766 23-207); assay: flow cytometry on Jurkat cells
T3 construct: GenBank NP_000064.1, NP_000723.1, NP_000724.1
Description: To quantitate CD3 binding, 2.5E5 Jurkat cells were used for each condition. A 2× stock of the cells was made by resuspending the cells to 5E6/mL by placing in 50 μL of PBS with 2% FBS. Next, the cells were diluted with an equal volume of 2× stock of the test bispecific binding molecule. The cells and antibody were co-incubated on ice for 20 min. The cells were then washed 3 times with 300 μL of FACS buffer and were resuspended in 100 μL of goat anti-human Fc-PE conjugate antibody (Invitrogen cat. #12499882) at 1:500 dilution and incubated on ice with reduced light for 20 min. The cells were then washed 3 times with 300 μL of FACS buffer and fixed with 2% paraformaldehyde for 10 min at 25° C. The cells were washed 2 times with 300 μL of FACS buffer and analyzed on a Miltenyi MACSQuant Analyzer.

human ROR1 on cells = human ROR1 on cells (human, UniProt Q01973 30-937); assay: cell-based or functional assay
human ROR1 on cells, sequence (Q01973 30-937 limits assumed): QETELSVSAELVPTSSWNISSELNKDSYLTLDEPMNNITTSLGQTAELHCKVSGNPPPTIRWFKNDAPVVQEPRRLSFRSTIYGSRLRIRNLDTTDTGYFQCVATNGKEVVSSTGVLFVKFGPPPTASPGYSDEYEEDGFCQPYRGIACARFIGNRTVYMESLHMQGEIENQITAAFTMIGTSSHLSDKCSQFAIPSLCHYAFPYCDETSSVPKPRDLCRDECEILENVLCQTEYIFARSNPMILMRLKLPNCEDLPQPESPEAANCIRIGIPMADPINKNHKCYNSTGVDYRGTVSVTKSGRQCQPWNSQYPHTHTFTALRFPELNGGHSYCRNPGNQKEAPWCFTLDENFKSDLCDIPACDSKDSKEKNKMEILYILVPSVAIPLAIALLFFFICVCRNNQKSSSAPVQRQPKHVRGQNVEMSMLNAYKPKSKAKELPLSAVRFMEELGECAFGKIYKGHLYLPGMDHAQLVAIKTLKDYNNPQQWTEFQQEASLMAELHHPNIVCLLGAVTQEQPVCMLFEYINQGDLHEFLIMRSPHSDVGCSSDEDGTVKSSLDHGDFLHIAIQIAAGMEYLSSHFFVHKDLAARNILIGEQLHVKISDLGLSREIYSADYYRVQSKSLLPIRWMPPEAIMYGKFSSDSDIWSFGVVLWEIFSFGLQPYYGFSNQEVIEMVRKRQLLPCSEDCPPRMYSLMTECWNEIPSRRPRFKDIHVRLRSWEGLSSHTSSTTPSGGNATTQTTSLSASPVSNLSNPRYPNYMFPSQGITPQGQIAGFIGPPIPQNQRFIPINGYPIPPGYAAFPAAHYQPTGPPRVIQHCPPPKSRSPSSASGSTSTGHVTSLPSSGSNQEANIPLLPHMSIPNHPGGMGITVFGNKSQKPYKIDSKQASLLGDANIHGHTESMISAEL

T2 sequence (Q01973 30-406 limits assumed): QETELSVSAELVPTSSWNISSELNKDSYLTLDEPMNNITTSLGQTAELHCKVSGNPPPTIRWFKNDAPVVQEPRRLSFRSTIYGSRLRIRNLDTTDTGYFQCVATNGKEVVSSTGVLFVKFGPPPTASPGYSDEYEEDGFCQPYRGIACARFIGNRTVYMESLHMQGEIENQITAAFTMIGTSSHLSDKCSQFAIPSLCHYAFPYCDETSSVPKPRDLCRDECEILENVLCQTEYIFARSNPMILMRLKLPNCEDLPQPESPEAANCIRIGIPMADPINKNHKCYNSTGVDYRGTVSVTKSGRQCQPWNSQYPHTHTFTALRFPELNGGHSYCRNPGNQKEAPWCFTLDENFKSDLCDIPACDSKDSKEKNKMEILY
T3 sequence (P09693 23-182 limits assumed, chain 1 of 3): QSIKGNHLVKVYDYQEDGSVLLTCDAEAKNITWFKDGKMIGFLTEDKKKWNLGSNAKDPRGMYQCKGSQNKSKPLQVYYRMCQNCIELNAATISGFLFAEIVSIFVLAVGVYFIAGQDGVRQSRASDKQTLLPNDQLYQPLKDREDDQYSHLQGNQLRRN
T3 sequence (P04234 22-171 limits assumed, chain 2 of 3): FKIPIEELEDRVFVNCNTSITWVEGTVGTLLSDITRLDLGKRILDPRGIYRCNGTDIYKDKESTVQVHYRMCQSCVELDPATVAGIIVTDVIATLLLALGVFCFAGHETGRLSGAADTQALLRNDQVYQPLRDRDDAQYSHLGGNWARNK
T3 sequence (P07766 23-207 limits assumed, chain 3 of 3): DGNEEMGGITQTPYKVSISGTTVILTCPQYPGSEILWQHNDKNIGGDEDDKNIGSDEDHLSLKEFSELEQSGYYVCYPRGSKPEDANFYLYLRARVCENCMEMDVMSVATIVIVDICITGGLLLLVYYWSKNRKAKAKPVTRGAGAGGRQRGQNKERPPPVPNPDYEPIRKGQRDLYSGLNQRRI
T1 sequence (Q01973 30-406 limits assumed): as the sequence (Q01973 30-406 limits assumed) above

| Binder | Kd [1] | Kd [2] | binding result [3] | EC50, LDH release, ROR1-transfected MEC (human ROR1 on cells) | Max. LDH Release, ROR1-transfected MEC (human ROR1 on cells) |
| --- | --- | --- | --- | --- | --- |
| B1 | 116 pM | 86 pM | binds | – | – |
| B2 | – | 48 pM | binds | 3.5 ng/mL and 17 pM | 34% |
| B3 | – | 366 pM | – | 1.8 ng/mL and 9 pM | 37% |
| B4 | – | 57 pM | binds | – | – |
| B5 | – | 68 pM | binds | – | – |
| B6 | – | – | binds | – | – |
| B7 | – | 200 pM | – | – | – |
